Literature values in paper PMC4703387, “Identification of the Calmodulin-Binding Domains of Fas Death Receptor” (PLoS ONE, 2016).

Molecular target: T1, Ca^2+/CaM (Homo sapiens, UniProt P0DP23)
T1 construct: made in house
Conditions: ref [32]
Excerpt: We have also shown that both lobes of Ca^2+/CaM are important for FasDD binding. […] Our attempt to identify the interaction regions by ... || To identify the Ca^2+/CaM-binding regions in large proteins is not a simple task. To predict the Ca^2+/CaM-binding site, a web-based tool is often used to provide favorable scores based on multiple criteria including hydropathy, α-helical propensity, hydrophobic residue content, residue charge, residue weight, helical class and occurrence of particular residues.[39] However, this method can still provide biased results.

B1: FasDD: intracellular death domain of Fas (protein)
chain: SKYITTIAGVMTLSQVKGFVRKNGVNEAKIDEIKNDNVQDTAEQKVQLLRNWHQLHGKKEAYDTLIKDLKKANLCTLAEKIQTII
In the case of B1, the “stoichiometry of Ca^2+/CaM–FasDD complex” value is given as “two Ca^2+/CaM molecules binding simultaneously to FasDD”.
